According to PMC4886647, “Transcriptional Regulation of the Outer Membrane Porin Gene ompW Reveals its Physiological Role during the Transition from the Aerobic to the Anaerobic Lifestyle of Escherichia coli”:

B1: PompW -167 to -36 native (dsDNA)
DNA 1: GAGTTAATATTTGCGTAGCGAAAATATTTAAAAATTGATTTAAATCACATTAACCAGGATTCTCAATGCAACTTCTAAATTAATCCAGATCAATAAAGGGTGAATTATCATATGTAATGTGATCTATGTAGG
DNA 2: CCTACATAGATCACATTACATATGATAATTCACCCTTTATTGATCTGGATTAATTTAGAAGTTGCATTGAGAATCCTGGTTAATGTGATTTAAATCAATTTTTAAATATTTTCGCTACGCAAATATTAACTC
B2: PompW m-42.5 (dsDNA)
DNA 1: CATTAACCAGGATTCTCAATGCAACTTCTAAATTAATCCAGATCAATAAAGGGTGAATTATCATATGTAATCTATGTAGGATCATTTGTTACTCCAATGTAGGTATATTCGTC
DNA 2: GACGAATATACCTACATTGGAGTAACAAATGATCCTACATAGATTACATATGATAATTCACCCTTTATTGATCTGGATTAATTTAGAAGTTGCATTGAGAATCCTGGTTAATG
B3: PompW -120 to -3 native (dsDNA)
DNA 1: CATTAACCAGGATTCTCAATGCAACTTCTAAATTAATCCAGATCAATAAAGGGTGAATTATCATATGTAATGTGATCTATGTAGGATCATTTGTTACTCCAATGTAGGTATATTCGTC
DNA 2: GACGAATATACCTACATTGGAGTAACAAATGATCCTACATAGATCACATTACATATGATAATTCACCCTTTATTGATCTGGATTAATTTAGAAGTTGCATTGAGAATCCTGGTTAATG

Tests used:
His6-FNR D154A = His6-FNR D154A (Escherichia coli, UniProt P0A9E5 1-250, D154A); test: EMSA; two retarded bands; EMSA: 20 mM Tris-HCl pH 8.0, 50 mM NaCl, 1 mM EDTA, 1 mM beta-mercaptoethanol, 10% glycerol, 37 C 30 min; 6% polyacrylamide gel in ice bath; 0.2 mM cAMP for CRP; conditions: protein: recombinant; tags: His6 (pET28a); chain copies: 2; blunt
His6-CRP = His6-CRP (Escherichia coli, UniProt P0ACJ8 1-210); test: EMSA; 0.2 mM cAMP; EMSA: 20 mM Tris-HCl pH 8.0, 50 mM NaCl, 1 mM EDTA, 1 mM beta-mercaptoethanol, 10% glycerol, 37 C 30 min; 6% polyacrylamide gel in ice bath; 0.2 mM cAMP for CRP; conditions: protein: recombinant; tags: His6 (pET28a); chain copies: 2; blunt

Binder	binding result (His6-FNR D154A)	binding result (His6-CRP)
B1	binds	
B2		no binding
B3		binds
